{
  "source": "patent US20260275317A1",
  "about": "“CHIMERIC ENDOLYSINS WITH ACTIVITY AGAINST STREPTOCOCCI AND STAPHYLOCOCCI” (UNIVERSITEIT GENT, priority 2023, published 2026)",
  "molecules": {"B1": {"name": "NC2: chimeric endolysin SEQ ID NO: 14; CPP + PlySs2 CHAP + PlySs2 SH3_5 + PlySs9 amidase_3 (protein)", "chain": "MRRRRRRRRGATTVNEALNNVRAQVGSGVSVGNGECYALASWYERMISPDATVGLGAGVGWVSGAIGDTISAKNIGSSYNWQANGWTVSTSGPFKAGQIVTLGATPGNPYGHVVIVEAVDGDRLTILEQNYGGKRYPVRNYYSAASYRQQVVHYITPPGTVAQSAPNLAGAGSRSYRETGTMTVTVDALNVRRAPNTSGEIVAVYKRGESFDYDTVIIDVNGYVWVSYIGGSGKRNYVATGATKDGKRFGNAWGTFKGSGKHLVICGHGQGRTGYDPGAVNAKLGITEAGKVRELSKLMSKYSGQQIDFITEQNVYDYRSITSIGKGYDSITELHFNAFNGSAKGTEVLIQSSLEADKEDMAILSLLSRYFQNRGIKKVDWLYNANQAASRGYTYRLVEIAFIDNEQDMAIFENKKEDIAKGLVSAITGVEVKTIVPSPPSSTVGSSGTPSKSIYLVGDSLRVLPHATHYQTGQKIANWVKGRTYKILQVKNVHQSNSKRAYLLDGIKSWVLEQDVEGTTKGHSKYHHHHHH"}},
  "key": {"[1]": {"test_system": "S. uberis, S. aureus, S. agalactiae and S. dysgalactiae", "assay": "2 h time killing assay in PBS and UHT-milk, relative in vitro scoring", "type": "cell-based", "settings": "0.25 μM", "experimental": "(§1) Concerning the time killing assay, an overnight bacterial culture was diluted 1:10 for S. uberis, S. agalactiae-& dysgalactiae or 1:100 for S. aureus in PBS or UHT-pasteurized whole cow's milk. A volume of 10 μL thereof was combined with an equal amount of chimeric endolysin in PBS (or only PBS as negative control) in triplicate and incubated in a covered 96-well microtiter plate at 37° C. for 2 h. […] Finally, these fractions were serially diluted 1:10 in PBS. 5 μL of each fraction was spotted on TSA or BHI-agar and incubated overnight at 37° C. The following day, colony forming units (CFU) were counted and converted to CFU/mL to calculate logarithmic reductions in comparison with the negative control. The relative scores were calculated by dividing the observed logarithmic reduction for each endolysin by the maximal reduction observed for that specific condition and strain. Next, this value was divided by the number of conditions and strains tested (i.e., 8=4 bacterial strains×2 conditions (PBS/UHT-milk)). As such, the best performing candidate in each individual assay received a score of 0.125 (=(1/1)/8). […] Turbidity reduction assays were performed by combining 100 μL of overnight grown bacterial cells with an equal volume of purified enzyme at the desired concentration. Bacterial cells were washed with PBS and resuspended in a 1:1 ratio with enzyme to an OD600 of approximately 1.0. Next, the OD600 was measured using a Tecan infinite 200 PRO plate reader (Tecan, Switzerland) every 15 seconds at 37° C., shaking the 96-well plate between each measurement.\nStationary phase S. uberis 0140J or S. aureus N305 and one randomly chosen clinical isolate of S. uberis, S. aureus, S. agalactiae and S. dysgalactiae were challenged with a final concentration of 0.25 μM endolysin in a 2 h time killing assay (TKA) in both phosphate buffered saline (PBS) and ultra-high temperature pasteurized whole cow's milk (UHT-milk)."}, "[2]": {"test_system": "stationary phase S. uberis", "assay": "Turbidity reduction assay (TRA), S. uberis", "type": "cell-based, Streptococcus uberis", "settings": "0.3 μM", "experimental": "Concerning the time killing assay, an overnight bacterial culture was diluted 1:10 for S. uberis, S. agalactiae-& dysgalactiae or 1:100 for S. aureus in PBS or UHT-pasteurized whole cow's milk. A volume of 10 μL thereof was combined with an equal amount of chimeric endolysin in PBS (or only PBS as negative control) in triplicate and incubated in a covered 96-well microtiter plate at 37° C. for 2 h. The dose was low (i.e. 0.25 μM), but this was chosen to differentiate between less and better performing variants, consequently allowing a ranking. Finally, these fractions were serially diluted 1:10 in PBS. 5 μL of each fraction was spotted on TSA or BHI-agar and incubated overnight at 37° C. The following day, colony forming units (CFU) were counted and converted to CFU/mL to calculate logarithmic reductions in comparison with the negative control. The relative scores were calculated by dividing the observed logarithmic reduction for each endolysin by the maximal reduction observed for that specific condition and strain. Next, this value was divided by the number of conditions and strains tested (i.e., 8=4 bacterial strains×2 conditions (PBS/UHT-milk)). As such, the best performing candidate in each individual assay received a score of 0.125 (=(1/1)/8). […] Turbidity reduction assays were performed by combining 100 μL of overnight grown bacterial cells with an equal volume of purified enzyme at the desired concentration. Bacterial cells were washed with PBS and resuspended in a 1:1 ratio with enzyme to an OD600 of approximately 1.0. Next, the OD600 was measured using a Tecan infinite 200 PRO plate reader (Tecan, Switzerland) every 15 seconds at 37° C., shaking the 96-well plate between each measurement.\n(§2) Time killing and turbidity reduction assays were performed as previously described in 1.3.1."}, "[3]": {"test_system": "stationary phase S. uberis", "assay": "Time killing assay (TKA), S. uberis", "type": "cell-based, Streptococcus uberis", "settings": "0.3 μM; for ΔLog10 (CFU/mL): 1 h", "experimental": "as §1, with “milk.” for “milk. A volume of 10 μL thereof was combined with an equal amount of chimeric endolysin in PBS (or only PBS as negative control) in triplicate and incubated in a covered 96-well microtiter plate at 37° C. for 2 h.”\nas §2\nTime killing assays were performed as previously described in 1.3.1."}, "S. aureus": {"test_system": "S. aureus", "assay": "TRA and TKA against S. aureus mastitis isolates", "type": "cell-based, Staphylococcus aureus", "settings": "S. aureus (sub)clinical isolates", "experimental": "Concerning the time killing assay, an overnight bacterial culture was diluted 1:10 for S. uberis, S. agalactiae-& dysgalactiae or 1:100 for S. aureus in PBS or UHT-pasteurized whole cow's milk. A volume of 10 μL thereof was combined with an equal amount of chimeric endolysin in PBS (or only PBS as negative control) in triplicate and incubated in a covered 96-well microtiter plate at 37° C. for 2 h. The dose was low (i.e. 0.25 μM), but this was chosen to differentiate between less and better performing variants, consequently allowing a ranking. Finally, these fractions were serially diluted 1:10 in PBS. 5 μL of each fraction was spotted on TSA or BHI-agar and incubated overnight at 37° C. The following day, colony forming units (CFU) were counted and converted to CFU/mL to calculate logarithmic reductions in comparison with the negative control. The relative scores were calculated by dividing the observed logarithmic reduction for each endolysin by the maximal reduction observed for that specific condition and strain. Next, this value was divided by the number of conditions and strains tested (i.e., 8=4 bacterial strains×2 conditions (PBS/UHT-milk)). […] Next, the OD600 was measured using a Tecan infinite 200 PRO plate reader (Tecan, Switzerland) every 15 seconds at 37° C., shaking the 96-well plate between each measurement. […]"}, "[4]": {"settings": "Clinical S. uberis 1 (Unknown ST and GCC)"}, "[5]": {"settings": "Clinical S. uberis 2 (Unknown ST, GCC 5)"}, "[6]": {"settings": "Clinical S. uberis 3 (Unknown ST, GCC 5)"}, "[7]": {"settings": "Clinical S. uberis 4 (ST 815, GCC 143)"}, "[8]": {"settings": "Clinical S. uberis 5 (ST 944, GCC 5)"}, "[9]": {"settings": "Subclinical S. uberis 1 (ST 808, GCC 143)"}, "[10]": {"settings": "Subclinical S. uberis 2 (Unknown ST and GCC)"}, "[11]": {"settings": "Subclinical S. uberis 3 (Unknown ST, GCC 5)"}, "[12]": {"settings": "Subclinical S. uberis 4 (Unknown ST and GCC)"}},
  "data": [
    {"molecule": "B1", "values": [
      {"measurement": "ranking by cumulative relative in vitro score", "setting": "[1]", "result": "overall best performing candidates"},
      {"measurement": "lysis speed (ΔOD600/min)/μM", "setting": "[2]; [4]", "result": "0.03 (ΔOD600/min)/μM"},
      {"measurement": "ΔOD600", "setting": "[2]; Clinical S. uberis 1 (Unknown ST and GCC), 1 h", "result": 0.32},
      {"measurement": "lysis speed (ΔOD600/min)/μM", "setting": "[2]; [5]", "result": "0.08 (ΔOD600/min)/μM"},
      {"measurement": "ΔOD600", "setting": "[2]; Clinical S. uberis 2 (Unknown ST, GCC 5), 1 h", "result": 0.54},
      {"measurement": "lysis speed (ΔOD600/min)/μM", "setting": "[2]; [6]", "result": "0.22 (ΔOD600/min)/μM"},
      {"measurement": "ΔOD600", "setting": "[2]; Clinical S. uberis 3 (Unknown ST, GCC 5), 1 h", "result": 0.72},
      {"measurement": "lysis speed (ΔOD600/min)/μM", "setting": "[2]; [7]", "result": "0.04 (ΔOD600/min)/μM"},
      {"measurement": "ΔOD600", "setting": "[2]; Clinical S. uberis 4 (ST 815, GCC 143), 1 h", "result": 0.30},
      {"measurement": "lysis speed (ΔOD600/min)/μM", "setting": "[2]; [8]", "result": "0.12 (ΔOD600/min)/μM"},
      {"measurement": "ΔOD600", "setting": "[2]; Clinical S. uberis 5 (ST 944, GCC 5), 1 h", "result": 0.63},
      {"measurement": "ΔOD600", "setting": "[2]; S. uberis 0140J", "result": "0.53±0.01"},
      {"measurement": "lysis speed (ΔOD600/min)/μM", "setting": "[2]; [9]", "result": "0.18 (ΔOD600/min)/μM"},
      {"measurement": "ΔOD600", "setting": "[2]; Subclinical S. uberis 1 (ST 808, GCC 143), 1 h", "result": 0.65},
      {"measurement": "lysis speed (ΔOD600/min)/μM", "setting": "[2]; [10]", "result": "0.06 (ΔOD600/min)/μM"},
      {"measurement": "ΔOD600", "setting": "[2]; Subclinical S. uberis 2 (Unknown ST and GCC), 1 h", "result": 0.59},
      {"measurement": "lysis speed (ΔOD600/min)/μM", "setting": "[2]; [11]", "result": "0.18 (ΔOD600/min)/μM"},
      {"measurement": "ΔOD600", "setting": "[2]; Subclinical S. uberis 3 (Unknown ST, GCC 5), 1 h", "result": 0.67},
      {"measurement": "lysis speed (ΔOD600/min)/μM", "setting": "[2]; [12]", "result": "0.15 (ΔOD600/min)/μM"},
      {"measurement": "ΔOD600", "setting": "[2]; Subclinical S. uberis 4 (Unknown ST and GCC), 1 h", "result": 0.66},
      {"measurement": "ΔLog10 (CFU/mL)", "setting": "[3]; [4]", "result": "0.00 Log10 (CFU/mL)"},
      {"measurement": "ΔLog10 (CFU/mL)", "setting": "[3]; [5]", "result": "4.16 Log10 (CFU/mL)"},
      {"measurement": "ΔLog10 (CFU/mL)", "setting": "[3]; [6]", "result": "1.66 Log10 (CFU/mL)"},
      {"measurement": "ΔLog10 (CFU/mL)", "setting": "[3]; [7]", "result": "0.01 Log10 (CFU/mL)"},
      {"measurement": "ΔLog10 (CFU/mL)", "setting": "[3]; [8]", "result": "0.86 Log10 (CFU/mL)"},
      {"measurement": "Δ log10", "setting": "[3]; S. uberis 0140J", "result": "0.90±0.03", "unit": "log10"},
      {"measurement": "ΔLog10 (CFU/mL)", "setting": "[3]; [9]", "result": "2.84 Log10 (CFU/mL)"},
      {"measurement": "ΔLog10 (CFU/mL)", "setting": "[3]; [10]", "result": "1.02 Log10 (CFU/mL)"},
      {"measurement": "ΔLog10 (CFU/mL)", "setting": "[3]; [11]", "result": "1.31 Log10 (CFU/mL)"},
      {"measurement": "ΔLog10 (CFU/mL)", "setting": "[3]; [12]", "result": "2.84 Log10 (CFU/mL)"},
      {"measurement": "enzymatic (ΔOD600) and killing (Δ log10) activity, NC2 pairwise versus NC5", "setting": "S. aureus", "result": "significantly (p<0.001) improved enzymatic (i.e., ΔOD600) and killing (i.e., Δ log10) activity"}
    ]}
  ]
}
